# Reference: patent US20020137891A1, “Protein scaffold and its use to multimerise monomeric polypeptides” (priority 1999, published 2002)
# B1: GroEL(191-376): monomeric minichaperone, apical domain of GroEL residues 191 to 376, sht removed by thrombin cleavage (protein, UniProt P0A6F5 191-376, looked up, fragment)
# chain: EGMQFDRGYLSPYFINKPETGAVELESPFILLADKKISNIREMLPVLEAVAKAGKPLLIIAEDVEGEALATLVVNTMRGIVKVAAVKAPGFGDRRKAMLQDIATLTGGTVISEEIGMELEKATLEDLGQAKRVVINKDTTTIIDGVGEEAAIQGRVAQIRQQIEEATSDYDREKLQERVAKLAGGV
# modifications: apical domain
# notes: monomeric minichaperone, apical domain of GroEL residues 191 to 376, sht removed by thrombin cleavage
# Experiments:
# GroES = GroES (Escherichia coli, UniProt P0A6F9); details: ELISA; proteins coated at 10 μg/mL, GroES at 10 μg/mL, 25° C.
# Chain of GroES (P0A6F9 whole entry): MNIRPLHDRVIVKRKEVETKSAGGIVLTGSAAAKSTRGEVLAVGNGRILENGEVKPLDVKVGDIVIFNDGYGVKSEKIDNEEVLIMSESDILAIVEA
# Description: GroES binding and competition assays by ELISA (enzyme-linked immunosorbant assay). Proteins were coated onto plastic microtitre plates (Maxisorb, Nunc) overnight at 4° C. at a concentration of 10 μg/mL in carbonate buffer (50 mM NaHCO3, pH 9.6). Plates were blocked for 1 hour at 25° C. with 2% Marvel in PBS (phosphate buffered saline: 25 mM NaH2PO4, 125 mM NaCl, pH 7.0). GroES, at 10 μg/mL in 100 μL of 10 mM Tris-HCl, 200 mM KCl, pH 7.4, were bound at 25° C. for 1 hour. Bound GroES were detected with rabbit anti-GroES antibodies (Sigma) followed by anti-rabbit immunoglobulins horseradish peroxidase conjugated antibodies (Sigma).
# [1] = molecular target: T1, pig heart mitochondrial malate dehydrogenase (mtMDH) (Sus scrofa, UniProt P00346); experiment: In vitro refolding and aggregation protection of heat- and dithiothreitol-denatured mtMDH; format: biochemical; details: reactivation at 25° C., chaperone alone, FIG. 7b
# T1 construct: pig heart mitochondrial malate dehydrogenase (mtMDH; Boehringer-Mannheim); purchased Boehringer-Mannheim; host or cells: pig heart
# T1 sequence (P00346 25-338): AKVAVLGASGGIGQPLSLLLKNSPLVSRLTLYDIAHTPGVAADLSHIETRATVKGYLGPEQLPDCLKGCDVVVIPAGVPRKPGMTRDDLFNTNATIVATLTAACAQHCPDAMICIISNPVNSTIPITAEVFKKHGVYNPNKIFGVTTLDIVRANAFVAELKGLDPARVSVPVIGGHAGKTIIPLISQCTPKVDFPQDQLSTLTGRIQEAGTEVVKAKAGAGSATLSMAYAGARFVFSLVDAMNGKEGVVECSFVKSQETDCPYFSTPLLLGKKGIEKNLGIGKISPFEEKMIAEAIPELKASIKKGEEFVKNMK
# Description: In vitro refolding experiments. Refolding assays of pig heart mitochondrial malate dehydrogenase (mtMDH; Boehringer-Mannheim) and aggregation protection were carried out essentially as described (Peres Ben-Zvi, A. P., Chatellier, J., Fersht, A. R. & Goloubinoff, P. (1998) Proc. Natl. Acad. Sci. U.S.A. 95, 15275-15280). The concentrations of MC7 used were between 8-16 μM (reporter to protomer).
# bacteriophage λ (b2cI) = experiment: Growth (plaque formation) of bacteriophage λ at 30° C. in transformed wild-type and groEL mutant strains; format: cell-based, E. coli
# Excerpt: Bacterial and bacteriophage strains. The E. coli strains used in this study were: C41(DE3), a mutant of BL21(DE3) capable of expressing toxic genes (Miroux, B. & Walker, J. E. (1996) J. Mol. Biol. 260, 289-298); SV2 (B178groEL44), SV3 (B178groEL59) and SV6 (B178groEL673): isogenic strains carrying temperature-sensitive alleles of groEL; SV1(=B178) (Georgopoulos, C., Hendrix, R. W., Casjens, S. R. & Kaiser, A. D. (1973) J. Mol. Biol. 76, 45-60), AI90 (ΔgroEL::kan^R) [pBAD-EL] (Ivic, A., Olden, D., Wallington, E. J. & Lund, P. A. (1997) Gene 194, 1-8), and TG1 (Gibson, T. J. (1984) Ph.D. thesis, University of Cambridge, U.K). Bacteriophage λb2cI (Zeilstra-Ryalls, J., Fayet, O., Baird, L. & Georgopoulos, C. (1993) J. Bacteriol. 175, 1134-1143) was used according to standard methods (Arber, W., Enquist, L., Hohn, B., Murray, N. E. & Murray, K. (1983) in Lambda II., ed. R. W. Hendrix, J. W. r., F. W. Stahl and R. A. Weisberg (Cold Spring Harbor Laboratory, Cold Spring Harbor, N.Y.), pp. 433-466); plaque formation was assayed at 30° C. T4D0, a derivative of bacteriophage T4 (Zeilstra-Ryalls, J., Fayet, O., Baird, L. & Georgopoulos, C. (1993) J. Bacteriol. 175, 1134-1143), was used according to standard methods (Karam, J. D. (1994) Molecular biology of bacteriophage T4. (American Society for Microbiology, Washington, D.C.)); plaque formation was assayed at 37° C.
# Bacteriophage λ requires the chaperonins GroES and GroEL for protein folding during morphogenesis; bacteriophage T4 requires GroEL and Gp31, the latter being encoded by the bacteriophage genome (Zeilstra-Ryalls, J., Fayet, O. & Georgopoulos, C. (1991) Annu. Rev. Microbiol. 45, 301-325). Nine groE alleles which fail to support λ growth have been sequenced (Zeilstra-Ryalls, J., Fayet, O., Baird, L. & Georgopoulos, C. (1993) J. Bacteriol. 175, 1134-1143). We examined the ability of MC7, over-expressed from the constitutive tet promoter on a high-copy number vector (see FIG. 2), to complement three mutant groEL alleles for plaque formation by λ (b2cI) at 30° C. (Table 3) and T4 at 37° C. (Table 4).
molecule,measurement,setting,value
B1,Binding to GroES,GroES,did not detectably bind
same,rate of refolding of denatured mtMDH,[1],ineffective in enhancing the refolding rate
same,Effect of over-expression on plaque formation by bacteriophage λ in SV1 (groE^+) (in words),bacteriophage λ (b2cI),had no effect on plaque counts
